From IntAct's records for PubMed 23386615

B1: Serine/threonine-protein kinase 4 (Homo sapiens), Q13043 (parent)
chain: METVQLRNPPRRQLKKLDEDSLTKQPEEVFDVLEKLGEGSYGSVYKAIHKETGQIVAIKQVPVESDLQEIIKEISIMQQCDSPHVVKYYGSYFKNTDLWIVMEYCGAGSVSDIIRLRNKTLTEDEIATILQSTLKGLEYLHFMRKIHRDIKAGNILLNTEGHAKLADFGVAGQLTDTMAKRNTVIGTPFWMAPEVIQEIGYNCVADIWSLGITAIEMAEGKPPYADIHPMRAIFMIPTNPPPTFRKPELWSDNFTDFVKQCLVKSPEQRATATQLLQHPFVRSAKGVSILRDLINEAMDVKLKRQESQQREVDQDDEENSEEDEMDSGTMVRAVGDEMGTVRVASTMTDGANTMIEHDDTLPSQLGTMVINAEDEEEEGTMKRRDETMQPAKPSFLEYFEQKEKENQINSFGKSVPGPLKNSSDWKIPQDGDYEFLKSWTVEDLQKRLLALDPMMEQEIEEIRQKYQSKRQPILDAIEAKKRRQQNF
partner: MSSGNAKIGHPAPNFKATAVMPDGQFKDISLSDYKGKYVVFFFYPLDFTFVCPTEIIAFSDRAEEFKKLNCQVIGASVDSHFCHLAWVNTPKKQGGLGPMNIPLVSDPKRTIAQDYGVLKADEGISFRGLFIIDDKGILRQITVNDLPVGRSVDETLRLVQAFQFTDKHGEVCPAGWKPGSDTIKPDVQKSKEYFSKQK
B2: Peroxiredoxin-1 (Homo sapiens), Q06830 (parent)
chain: B1 partner
partner: B1 chain

Variants of: B1
Conditions: with prdx1_human PRDX1, Q06830

Variant	effect of a mutation on the interaction
K59R	increasing interaction

Variants of: B2
Conditions: with stk4_human STK4, Q13043

Variant	effect of a mutation on the interaction
C52S;C173S	decreasing interaction
